This note sets out measurements from IntAct's records for PubMed 19804848.

The chains are these.
B1: Syntaxin-binding protein 2 (Homo sapiens), Q15833 (parent)
chain: MAPSGLKAVVGEKILSGVIRSVKKDGEWKVLIMDHPSMRILSSCCKMSDILAEGITIVEDINKRREPIPSLEAIYLLSPTEKSVQALIKDFQGTPTFTYKAAHIFFTDTCPEPLFSELGRSRLAKVVKTLKEIHLAFLPYEAQVFSLDAPHSTYNLYCPFRAEERTRQLEVLAQQIATLCATLQEYPAIRYRKGPEDTAQLAHAVLAKLNAFKADTPSLGEGPEKTRSQLLIMDRAADPVSPLLHELTFQAMAYDLLDIEQDTYRYETTGLSEAREKAVLLDEDDDLWVELRHMHIADVSKKVTELLRTFCESKRLTTDKANIKDLSQILKKMPQYQKELNKYSTHLHLADDCMKHFKGSVEKLCSVEQDLAMGSDAEGEKIKDSMKLIVPVLLDAAVPAYDKIRVLLLYILLRNGVSEENLAKLIQHANVQAHSSLIRNLEQLGGTVTNPGGSGTSSRLEPRERMEPTYQLSRWTPVIKDVMEDAVEDRLDRNLWPFVSDPAPTASSQAAVSARFGHWHKNKAGIEARAGPRLIVYVMGGVAMSEMRAAYEVTRATEGKWEVLIGSSHILTPTRFLDDLKALDKKLEDIALP
partner: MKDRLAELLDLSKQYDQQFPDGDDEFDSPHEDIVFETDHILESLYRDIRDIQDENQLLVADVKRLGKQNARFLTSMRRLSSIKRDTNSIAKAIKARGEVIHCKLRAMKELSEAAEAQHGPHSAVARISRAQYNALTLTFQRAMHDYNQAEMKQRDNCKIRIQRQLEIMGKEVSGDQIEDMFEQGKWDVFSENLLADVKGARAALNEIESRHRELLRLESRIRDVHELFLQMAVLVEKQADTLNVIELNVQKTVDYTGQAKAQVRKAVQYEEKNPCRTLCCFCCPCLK

In this test the parent is B1. To be noted: with stx11_human STX11, O75558.
Turning to MAPSGLKAVVGEKILSGVIRSVKKDGEWKVLIMDHPSMRILSSCCKMSDILAEGITIVEDINKRREPIPSLEAIYLLSPTEKSVQALIKDFQGTPTFTYKAAHIFFTDTCPEPLFSELGRSRLAKVVKTLKEIHLAFLPYEAQVFSLDAPHSTYNLYCPFRAEERTRQLEVLAQQIATLCATLQEYPAIRYRKGPEDTAQLAHAVLAKLNAFKADTPSLGEGPEKTRSQLLIMDRAADPVSPLLHELTFQAMAYDLLDIEQDTYRYETTGLSEAREKAVLLDEDDDLWVELHHMHIADVSKKVTELLRTFCESKRLTTDKANIKDLSQILKKMPQYQKELNKYSTHLHLADDCMKHFKGSVEKLCSVEQDLAMGSDAEGEKIKDSMKLIVPVLLDAAVPAYDKIRVLLLYILLRNGVSEENLAKLIQHANVQAHSSLIRNLEQLGGTVTNPGGSGTSSRLEPRERMEPTYQLSRWTPVIKDVMEDAVEDRLDRNLWPFVSDPAPTASSQAAVSARFGHWHKNKAGIEARAGPRLIVYVMGGVAMSEMRAAYEVTRATEGKWEVLIGSSHILTPTRFLDDLKALDKKLEDIALP [R292H], the “effect of a mutation on the interaction” value is listed as “disrupting interaction strength”. Under MAPSGLKAVVGEKILSGVIRSVKKDGEWKVLIMDHPSMRILSSCCKMSDILAEGITIVEDINKRREPIPSLEAIYLLSPTEKSVQALIKDFQGTPTFTYKAAHIFFTDTCPEPLFSELGRSRLAKVVKTLKEIHLAFLPYEAQVFSLDAPHSTYNLYCPFRAEERTRQLEVLAQQIATLCATLQEYPAIRYRKGPEDTAQLAHAVLAKLNAFKADTPSLGEGPEKTRSQLLIMDRAADPVSPLLHELTFQAMAYDLLDIEQDTYRYETTGLSEAREKAVLLDEDDDLWVELRHMHIADVSKKVTELLRTFCESKRLTTDKANIKDLSQILKKMPQYQKELNKYSTHLHLADDCMKHFKGSVEKLCSVEQDLAMGSDAEGEKIKDSMKLIVPVLLDAAVPAYDKIRVLLLYILLRNGVSEENLAKLIQHANVQAHSSLIRNLEQLGGTVTNPGGSGTSSRLEPRERMEPTYQLSRWTLVIKDVMEDAVEDRLDRNLWPFVSDPAPTASSQAAVSARFGHWHKNKAGIEARAGPRLIVYVMGGVAMSEMRAAYEVTRATEGKWEVLIGSSHILTPTRFLDDLKALDKKLEDIALP [P477L] stands “disrupting interaction strength”; under MAPSGLKAVVGEKILSGVIRSVKKDGEWKVLIMDHPSMRILSSCCKMSDILAEGITIVEDINKRREPIPSLEAIYLLSPTEKSVQALIKDFQGTPTFTYKAAHIFFTDTCPEPLFSELGRSRLAKVVKTLKEIHLAFLPYEAQVFSLDAPHSTYNLYCPFRAEERTRQLEVLAQQIATLCATLQEYPAIRYRKGPEDTAQLAHAVLAKLNAFKADTPSLGEGPEKTRSQLLIMDRAADPVSPLLHELTFQAMAYDLLDIEQDTYRYETTGLSEAREKAVLLDEDDDLWVELRHMHIADVSKKVTELLRTFCESKRLTTDKANIKDLSQILKKMPQYQKELNKYSTHLHLADDCMKHFKGSVEKLCSVEQDLAMGSDAEGEKIKDSMKLIVPVLLDAAVPAYDKIWVLLLYILLRNGVSEENLAKLIQHANVQAHSSLIRNLEQLGGTVTNPGGSGTSSRLEPRERMEPTYQLSRWTPVIKDVMEDAVEDRLDRNLWPFVSDPAPTASSQAAVSARFGHWHKNKAGIEARAGPRLIVYVMGGVAMSEMRAAYEVTRATEGKWEVLIGSSHILTPTRFLDDLKALDKKLEDIALP [R405W], “disrupting interaction strength”. As for MAPSGLKAVVGEKILSGVIRSVKKDGEWKVLIMDHPSMRILSSCCKMSDILAEGITIVEDINKRREPIPSLEAIYLLSPTEKSVQALIKDFQGTPTFTYKAAHIFFTDTCPEPLFSELGRSRLAKVVKTLKEIHLAFLPYEAQVFSLDAPHSTYNLYCPFRAEERTRQLEVLAQQIATLCATLQEYPAIRYRKGPEDTAQLAHAVLAKLNAFKADTPSLGEGPEKTRSQLLIMDRAADPVSPLLHELTFQAMAYDLLDIEQDTYRYETTGLSEAREKAVLLDEDDDLWVELRHMHIADVSKKVTELLRTFCESKRLTTDKANIKDLSQILKKMPQYQKELNKYSTHLHLADDCMKHFKGSVEKLCSVEQDLAMGSDAEGEKIKDSMKLIVPVLLDAAVPAYDKIEVLLLYILLRNGVSEENLAKLIQHANVQAHSSLIRNLEQLGGTVTNPGGSGTSSRLEPRERMEPTYQLSRWTPVIKDVMEDAVEDRLDRNLWPFVSDPAPTASSQAAVSARFGHWHKNKAGIEARAGPRLIVYVMGGVAMSEMRAAYEVTRATEGKWEVLIGSSHILTPTRFLDDLKALDKKLEDIALP [R405E], the “effect of a mutation on the interaction” value is recorded as “disrupting interaction strength”.
